Where two headings read alike, the source gives them in different places.
B1: long-acting GDF15 fusion protein (dimer) FM9 + Fc_hole (ΔN2, S64R) (Fc fusion)
chain 1: APALAGGPSVFLFPPKPKDTLMISRTPEVTCVVVDVSHEDPEVKFNWYVDGVEVHNAKTKPREEQYNSTYRVVSVLTVLHQDWLNGKEYKCKVSNKALPAPIEKTISKAKGQPREPQVYTLPPSREEMTKNQVSLWCLVKGFYPSDIAVEWESNGQPENNYKTTPPVLDSDGSFFLYSKLTVDKSRWQQGNVFSCSVMHEALHNHYTQKSLSLSPGKGGGGSGGGGSGGGGSGGGGSGGGGSNGDHCPLGPGRCCRLHTVRASLEDLGWADWVLSPREVQVTMCIGACPSQFRAANMHAQIKTRLHRLKPDTVPAPCCVPASYNPMVLIQKTDTGVSLQTYDDLLAKDCHCI
chain 2: not shown
B2: long-acting GDF15 fusion protein (dimer) FM4 + Fc_hole (ΔN2, N56C, D103C) (Fc fusion)
chain 1: APALAGGPSVFLFPPKPKDTLMISRTPEVTCVVVDVSHEDPEVKFNWYVDGVEVHNAKTKPREEQYNSTYRVVSVLTVLHQDWLNGKEYKCKVSNKALPAPIEKTISKAKGQPREPQVYTLPPSREEMTKNQVSLWCLVKGFYPSDIAVEWESNGQPENNYKTTPPVLDSDGSFFLYSKLTVDKSRWQQGNVFSCSVMHEALHNHYTQKSLSLSPGKGGGGSGGGGSGGGGSGGGGSGGGGSNGDHCPLGPGRCCRLHTVRASLEDLGWADWVLSPREVQVTMCIGACPSQFRAACMHAQIKTSLHRLKPDTVPAPCCVPASYNPMVLIQKTDTGVSLQTYDCLLAKDCHCI
chain 2: not shown
B3: long-acting GDF15 fusion protein (dimer) FM4-1 + Fc_hole (ΔN2, N56S, D103S) (Fc fusion)
chain 1: APALAGGPSVFLFPPKPKDTLMISRTPEVTCVVVDVSHEDPEVKFNWYVDGVEVHNAKTKPREEQYNSTYRVVSVLTVLHQDWLNGKEYKCKVSNKALPAPIEKTISKAKGQPREPQVYTLPPSREEMTKNQVSLWCLVKGFYPSDIAVEWESNGQPENNYKTTPPVLDSDGSFFLYSKLTVDKSRWQQGNVFSCSVMHEALHNHYTQKSLSLSPGKGGGGSGGGGSGGGGSGGGGSGGGGSNGDHCPLGPGRCCRLHTVRASLEDLGWADWVLSPREVQVTMCIGACPSQFRAASMHAQIKTSLHRLKPDTVPAPCCVPASYNPMVLIQKTDTGVSLQTYDSLLAKDCHCI
chain 2: not shown
B4: long-acting GDF15 fusion protein (dimer) FM4-2 + Fc_hole (ΔN2, D103L) (Fc fusion)
chain 1: APALAGGPSVFLFPPKPKDTLMISRTPEVTCVVVDVSHEDPEVKFNWYVDGVEVHNAKTKPREEQYNSTYRVVSVLTVLHQDWLNGKEYKCKVSNKALPAPIEKTISKAKGQPREPQVYTLPPSREEMTKNQVSLWCLVKGFYPSDIAVEWESNGQPENNYKTTPPVLDSDGSFFLYSKLTVDKSRWQQGNVFSCSVMHEALHNHYTQKSLSLSPGKGGGGSGGGGSGGGGSGGGGSGGGGSNGDHCPLGPGRCCRLHTVRASLEDLGWADWVLSPREVQVTMCIGACPSQFRAANMHAQIKTSLHRLKPDTVPAPCCVPASYNPMVLIQKTDTGVSLQTYDLLLAKDCHCI
chain 2: not shown
B5: long-acting GDF15 fusion protein (dimer) FM4-3 + Fc_hole (ΔN2, N56L) (Fc fusion)
chain 1: APALAGGPSVFLFPPKPKDTLMISRTPEVTCVVVDVSHEDPEVKFNWYVDGVEVHNAKTKPREEQYNSTYRVVSVLTVLHQDWLNGKEYKCKVSNKALPAPIEKTISKAKGQPREPQVYTLPPSREEMTKNQVSLWCLVKGFYPSDIAVEWESNGQPENNYKTTPPVLDSDGSFFLYSKLTVDKSRWQQGNVFSCSVMHEALHNHYTQKSLSLSPGKGGGGSGGGGSGGGGSGGGGSGGGGSNGDHCPLGPGRCCRLHTVRASLEDLGWADWVLSPREVQVTMCIGACPSQFRAALMHAQIKTSLHRLKPDTVPAPCCVPASYNPMVLIQKTDTGVSLQTYDDLLAKDCHCI
chain 2: not shown
B6: long-acting GDF15 fusion protein (dimer) FM13 + Fc_hole (ΔN2, S64N) (Fc fusion)
chain 1: APALAGGPSVFLFPPKPKDTLMISRTPEVTCVVVDVSHEDPEVKFNWYVDGVEVHNAKTKPREEQYNSTYRVVSVLTVLHQDWLNGKEYKCKVSNKALPAPIEKTISKAKGQPREPQVYTLPPSREEMTKNQVSLWCLVKGFYPSDIAVEWESNGQPENNYKTTPPVLDSDGSFFLYSKLTVDKSRWQQGNVFSCSVMHEALHNHYTQKSLSLSPGKGGGGSGGGGSGGGGSGGGGSGGGGSNGDHCPLGPGRCCRLHTVRASLEDLGWADWVLSPREVQVTMCIGACPSQFRAANMHAQIKTNLHRLKPDTVPAPCCVPASYNPMVLIQKTDTGVSLQTYDDLLAKDCHCI
chain 2: not shown
B7: long-acting GDF15 fusion protein (dimer) FM1 + Fc_hole (ΔN3, WS insertion, G4N, D5S, H6T) (Fc fusion)
chain 1: APALAGGPSVFLFPPKPKDTLMISRTPEVTCVVVDVSHEDPEVKFNWYVDGVEVHNAKTKPREEQYNSTYRVVSVLTVLHQDWLNGKEYKCKVSNKALPAPIEKTISKAKGQPREPQVYTLPPSREEMTKNQVSLWCLVKGFYPSDIAVEWESNGQPENNYKTTPPVLDSDGSFFLYSKLTVDKSRWQQGNVFSCSVMHEALHNHYTQKSLSLSPGKGGGGSGGGGSGGGGSGGGGSGGGGSWSNSTCPLGPGRCCRLHTVRASLEDLGWADWVLSPREVQVTMCIGACPSQFRAANMHAQIKTSLHRLKPDTVPAPCCVPASYNPMVLIQKTDTGVSLQTYDDLLAKDCHCI
chain 2: not shown
B8: long-acting GDF15 fusion protein (dimer) FM2 + Fc_hole (ΔN3, G4N, D5S, H6T) (Fc fusion)
chain 1: APALAGGPSVFLFPPKPKDTLMISRTPEVTCVVVDVSHEDPEVKFNWYVDGVEVHNAKTKPREEQYNSTYRVVSVLTVLHQDWLNGKEYKCKVSNKALPAPIEKTISKAKGQPREPQVYTLPPSREEMTKNQVSLWCLVKGFYPSDIAVEWESNGQPENNYKTTPPVLDSDGSFFLYSKLTVDKSRWQQGNVFSCSVMHEALHNHYTQKSLSLSPGKGGGGSGGGGSGGGGSGGGGSGGGGSNSTCPLGPGRCCRLHTVRASLEDLGWADWVLSPREVQVTMCIGACPSQFRAANMHAQIKTSLHRLKPDTVPAPCCVPASYNPMVLIQKTDTGVSLQTYDDLLAKDCHCI
chain 2: not shown
B9: long-acting GDF15 fusion protein (dimer) FM3 + Fc_hole (ΔN2, R21N) (Fc fusion)
chain 1: APALAGGPSVFLFPPKPKDTLMISRTPEVTCVVVDVSHEDPEVKFNWYVDGVEVHNAKTKPREEQYNSTYRVVSVLTVLHQDWLNGKEYKCKVSNKALPAPIEKTISKAKGQPREPQVYTLPPSREEMTKNQVSLWCLVKGFYPSDIAVEWESNGQPENNYKTTPPVLDSDGSFFLYSKLTVDKSRWQQGNVFSCSVMHEALHNHYTQKSLSLSPGKGGGGSGGGGSGGGGSGGGGSGGGGSNGDHCPLGPGRCCRLHTVNASLEDLGWADWVLSPREVQVTMCIGACPSQFRAANMHAQIKTSLHRLKPDTVPAPCCVPASYNPMVLIQKTDTGVSLQTYDDLLAKDCHCI
chain 2: not shown
B10: long-acting GDF15 fusion protein (dimer) FM10 + Fc_hole (ΔN3, WS insertion, G4N, D5S, H6T, S64R) (Fc fusion)
chain 1: APALAGGPSVFLFPPKPKDTLMISRTPEVTCVVVDVSHEDPEVKFNWYVDGVEVHNAKTKPREEQYNSTYRVVSVLTVLHQDWLNGKEYKCKVSNKALPAPIEKTISKAKGQPREPQVYTLPPSREEMTKNQVSLWCLVKGFYPSDIAVEWESNGQPENNYKTTPPVLDSDGSFFLYSKLTVDKSRWQQGNVFSCSVMHEALHNHYTQKSLSLSPGKGGGGSGGGGSGGGGSGGGGSGGGGSWSNSTCPLGPGRCCRLHTVRASLEDLGWADWVLSPREVQVTMCIGACPSQFRAANMHAQIKTRLHRLKPDTVPAPCCVPASYNPMVLIQKTDTGVSLQTYDDLLAKDCHCI
chain 2: not shown
B11: long-acting GDF15 fusion protein (dimer) FM11 + Fc_hole (ΔN3, G4N, D5S, H6T, S64R) (Fc fusion)
chain 1: APALAGGPSVFLFPPKPKDTLMISRTPEVTCVVVDVSHEDPEVKFNWYVDGVEVHNAKTKPREEQYNSTYRVVSVLTVLHQDWLNGKEYKCKVSNKALPAPIEKTISKAKGQPREPQVYTLPPSREEMTKNQVSLWCLVKGFYPSDIAVEWESNGQPENNYKTTPPVLDSDGSFFLYSKLTVDKSRWQQGNVFSCSVMHEALHNHYTQKSLSLSPGKGGGGSGGGGSGGGGSGGGGSGGGGSNSTCPLGPGRCCRLHTVRASLEDLGWADWVLSPREVQVTMCIGACPSQFRAANMHAQIKTRLHRLKPDTVPAPCCVPASYNPMVLIQKTDTGVSLQTYDDLLAKDCHCI
chain 2: not shown
B12: long-acting GDF15 fusion protein (dimer) FM12 + Fc_hole (ΔN2, R21N, S64R) (Fc fusion)
chain 1: APALAGGPSVFLFPPKPKDTLMISRTPEVTCVVVDVSHEDPEVKFNWYVDGVEVHNAKTKPREEQYNSTYRVVSVLTVLHQDWLNGKEYKCKVSNKALPAPIEKTISKAKGQPREPQVYTLPPSREEMTKNQVSLWCLVKGFYPSDIAVEWESNGQPENNYKTTPPVLDSDGSFFLYSKLTVDKSRWQQGNVFSCSVMHEALHNHYTQKSLSLSPGKGGGGSGGGGSGGGGSGGGGSGGGGSNGDHCPLGPGRCCRLHTVNASLEDLGWADWVLSPREVQVTMCIGACPSQFRAANMHAQIKTRLHRLKPDTVPAPCCVPASYNPMVLIQKTDTGVSLQTYDDLLAKDCHCI
chain 2: not shown
B13: long-acting GDF15 fusion protein (dimer) FM9-6 + Fc_hole (ΔN2, S64R; linker GS(EAAAK)5) (Fc fusion)
chain 1: APEAAGGPSVFLFPPKPKDTLMISRTPEVTCVVVDVSHEDPEVKFNWYVDGVEVHNAKTKPREEQYASTYRVVSVLTVLHQDWLNGKEYKCKVSNKALPAPIEKTISKAKGQPREPQVYTLPPSREEMTKNQVSLWCLVKGFYPSDIAVEWESNGQPENNYKTTPPVLDSDGSFFLYSKLTVDKSRWQQGNVFSCSVMHEALHNHYTQKSLSLSPGKGSEAAAKEAAAKEAAAKEAAAKEAAAKNGDHCPLGPGRCCRLHTVRASLEDLGWADWVLSPREVQVTMCIGACPSQFRAANMHAQIKTRLHRLKPDTVPAPCCVPASYNPMVLIQKTDTGVSLQTYDDLLAKDCHCI
chain 2: APEAAGGPSVFLFPPKPKDTLMISRTPEVTCVVVDVSHEDPEVKFNWYVDGVEVHNAKTKPREEQYASTYRVVSVLTVLHQDWLNGKEYKCKVSNKALPAPIEKTISKAKGQPREPQVYTLPPSREEMTKNQVSLSCAVKGFYPSDIAVEWESNGQPENNYKTTPPVLDSDGSFFLVSKLTVDKSRWQQGNVFSCSVMHEALHNHYTQKSLSLSPGK

Columns and labels:
Test in all cases: cell-based or functional assay
[1] = molecular target: T1, GDF15 receptors GFRAL and RET, overexpressed together on HEK293 cells (UniProt Q6UXV0 19-394; P07949 29-1114, limits assumed)
[2] = molecular target: T1, GDF15 receptors GFRAL and RET, …; remark: listed apart in the source
[3] = molecular target: T1, GDF15 receptors GFRAL and RET, …; remark: listed apart in the source
[4] = molecular target: T1, GDF15 receptors GFRAL and RET, …; remark: listed apart in the source
[5] = molecular target: T1, GDF15 receptors GFRAL and RET, …; remark: listed apart in the source

T1 sequence (Q6UXV0 19-394 limits assumed, chain 1 of 2): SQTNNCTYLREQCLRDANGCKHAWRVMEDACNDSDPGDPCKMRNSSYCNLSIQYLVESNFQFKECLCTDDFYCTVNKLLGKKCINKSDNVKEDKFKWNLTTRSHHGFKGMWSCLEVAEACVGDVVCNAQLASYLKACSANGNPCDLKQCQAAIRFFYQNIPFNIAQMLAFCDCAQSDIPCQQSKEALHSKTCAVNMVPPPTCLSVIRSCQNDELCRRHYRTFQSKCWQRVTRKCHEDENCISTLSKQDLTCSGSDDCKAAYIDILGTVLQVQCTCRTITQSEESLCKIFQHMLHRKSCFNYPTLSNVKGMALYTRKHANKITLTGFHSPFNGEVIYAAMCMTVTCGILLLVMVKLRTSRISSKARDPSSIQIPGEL
T1 sequence (P07949 29-1114 limits assumed, chain 2 of 2): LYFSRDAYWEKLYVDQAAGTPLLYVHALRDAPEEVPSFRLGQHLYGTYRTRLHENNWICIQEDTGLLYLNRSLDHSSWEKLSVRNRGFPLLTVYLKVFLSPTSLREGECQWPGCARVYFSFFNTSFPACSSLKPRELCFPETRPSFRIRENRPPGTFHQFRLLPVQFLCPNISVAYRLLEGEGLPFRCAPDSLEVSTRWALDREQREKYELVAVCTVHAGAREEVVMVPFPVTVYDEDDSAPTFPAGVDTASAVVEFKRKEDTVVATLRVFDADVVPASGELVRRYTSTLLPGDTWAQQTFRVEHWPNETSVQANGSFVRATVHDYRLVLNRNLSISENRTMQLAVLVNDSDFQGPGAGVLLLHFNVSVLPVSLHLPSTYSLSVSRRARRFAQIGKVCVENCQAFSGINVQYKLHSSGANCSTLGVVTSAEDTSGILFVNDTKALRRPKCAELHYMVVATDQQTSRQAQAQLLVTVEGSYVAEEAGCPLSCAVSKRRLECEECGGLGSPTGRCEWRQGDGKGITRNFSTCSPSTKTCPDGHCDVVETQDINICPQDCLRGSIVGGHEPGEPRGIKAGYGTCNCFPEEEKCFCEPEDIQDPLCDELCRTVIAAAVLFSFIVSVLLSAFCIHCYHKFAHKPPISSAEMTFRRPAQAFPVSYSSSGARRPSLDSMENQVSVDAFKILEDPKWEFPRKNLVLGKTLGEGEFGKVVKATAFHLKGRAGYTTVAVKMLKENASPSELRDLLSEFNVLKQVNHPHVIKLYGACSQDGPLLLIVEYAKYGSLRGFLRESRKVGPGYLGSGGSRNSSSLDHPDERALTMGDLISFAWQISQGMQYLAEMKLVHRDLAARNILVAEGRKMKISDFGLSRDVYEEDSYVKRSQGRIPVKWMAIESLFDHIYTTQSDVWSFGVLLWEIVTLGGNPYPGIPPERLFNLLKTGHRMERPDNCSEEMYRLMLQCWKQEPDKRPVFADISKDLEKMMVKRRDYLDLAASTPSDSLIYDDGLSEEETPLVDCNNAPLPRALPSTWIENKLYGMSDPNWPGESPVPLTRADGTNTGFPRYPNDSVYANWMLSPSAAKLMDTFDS

Row | Binder | EC50 [3] [nM] | Emax (%) [relative to FWT 100%] [3] [%] | EC50 [4] [nM] | Emax (%) [4] [%] | other results
1 | B1 | – | – | – | – | EC50 [1]: 5 nM; Emax (%) [relative to FWT 100%] [1]: 123%
2 | B2 | 3.6 | 140 | – | – | EC50 [2]: 3.4 nM; Emax (%) [relative to FWT 100%] [2]: 133%
3 | B3 | 8.9 | 86.4 | – | – | –
4 | B4 | 10.6 | 110 | – | – | –
5 | B5 | 140 | 34.3 | – | – | –
6 | B6 | – | – | – | – | EC50 [1]: 9.6 nM; Emax (%) [relative to FWT 100%] [1]: 93.3%
7 | B7 | – | – | 1.7 | 100 | –
8 | B8 | – | – | 3.9 | 100 | –
9 | B9 | – | – | 3.3 | 100 | –
10 | B10 | – | – | 2.3 | 267 | –
11 | B11 | – | – | 2.9 | 270 | –
12 | B12 | – | – | 5.9 | 221 | –
13 | B13 | – | – | – | – | EC50 [5]: 6.3 nM; Emax (%) [5]: 100%

Source: patent US20230002460A1 (YUHAN, published 2023)
